This is an account of results in patent US20230203107A1, “PEPTIDE FOR TREATING SEPSIS DERIVED FROM RV3364C PROTEIN OF MYCOBACTERIUM TUBERCULOSIS” (priority 2021, published 2023).

The target of data set [1] is T1, YEATS4 (Mus musculus, UniProt Q9CR11).
T1 construct: harvesting BMDM cells with different treatment times of 1 μg/ml rRv3364c, performing immunoprecipitation (IP) with αHis; endogenous in cells; host or cells: mouse BMDM, Raw264.7
Description: Co-immunoprecipitation, cell fractionation and immunostaining in macrophages and HEK293T cells. In kind it is cell-based. Particulars: cell fractionation (Raw264.7) and immunostaining (BMDM), 1 μg/ml rRv3364c, time course.

Data set [2] concerns YEATS4. The description is as above. Format: cell-based. Conditions: macrophages and HEK293T cells, 1 μg/ml rRv3364c, 15 to 30 min.
For the next data set, the system named is macrophages (BMDM). Format: cell-based, mouse. Conditions: 1 μg/ml, 18 hours, ELISA. On the technique in general: ELISA stands for enzyme-linked immunosorbent assay.
In data set [3] the target is T2, SNX9 (Mus musculus, UniProt Q91VH2).
T2 construct: harvesting BMDM cells with different treatment times of 1 μg/ml rRv3364c, performing immunoprecipitation (IP) with αHis; endogenous in cells; host or cells: mouse BMDM, Raw264.7
T2 sequence (Q91VH2 whole entry): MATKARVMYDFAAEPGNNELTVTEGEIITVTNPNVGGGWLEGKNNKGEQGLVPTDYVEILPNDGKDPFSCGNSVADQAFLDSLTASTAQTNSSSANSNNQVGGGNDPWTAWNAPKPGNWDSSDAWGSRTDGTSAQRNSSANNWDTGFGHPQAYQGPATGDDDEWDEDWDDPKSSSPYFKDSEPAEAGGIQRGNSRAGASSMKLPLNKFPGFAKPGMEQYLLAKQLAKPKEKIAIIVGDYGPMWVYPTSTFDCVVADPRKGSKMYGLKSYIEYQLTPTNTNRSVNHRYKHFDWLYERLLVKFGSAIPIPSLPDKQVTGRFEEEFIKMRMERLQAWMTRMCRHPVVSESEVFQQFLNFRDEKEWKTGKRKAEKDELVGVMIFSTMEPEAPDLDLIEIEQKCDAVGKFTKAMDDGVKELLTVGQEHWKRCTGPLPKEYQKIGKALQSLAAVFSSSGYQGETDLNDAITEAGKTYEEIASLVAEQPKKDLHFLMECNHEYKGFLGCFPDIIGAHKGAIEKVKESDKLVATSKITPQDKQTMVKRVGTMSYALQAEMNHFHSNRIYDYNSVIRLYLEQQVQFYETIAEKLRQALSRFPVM
In words: Co-immunoprecipitation, cell fractionation and immunostaining in macrophages and HEK293T cells. In kind it is cell-based. Conditions: cell fractionation (Raw264.7) and immunostaining (BMDM), 1 μg/ml rRv3364c, time course.

Data set [4] concerns SNX9. The description is as above. Format: cell-based. Conditions: macrophages and HEK293T cells, 1 μg/ml rRv3364c, 15 to 30 min.
In a further data set the target is T3, cathepsin G (Homo sapiens, UniProt P08311).
T3 sequence (P08311 21-244): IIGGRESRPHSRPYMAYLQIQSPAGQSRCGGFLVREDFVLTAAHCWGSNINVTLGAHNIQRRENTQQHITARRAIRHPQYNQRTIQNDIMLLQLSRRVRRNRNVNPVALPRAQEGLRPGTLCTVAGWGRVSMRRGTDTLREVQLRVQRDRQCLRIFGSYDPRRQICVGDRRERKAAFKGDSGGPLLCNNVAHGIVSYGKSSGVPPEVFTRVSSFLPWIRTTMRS
Particulars: membrane protein of macrophages; cited from earlier work.

In data set [5] the target is T4, YEATS4 (YEATS domain-containing protein 4) (Homo sapiens, UniProt O95619).
T4 construct: containing 20,000 or more full-length recombinant human proteins; purchased CDI Labs, USA (HuProt Human Proteome Microarray)
T4 sequence (O95619 whole entry, the tested form may be a part): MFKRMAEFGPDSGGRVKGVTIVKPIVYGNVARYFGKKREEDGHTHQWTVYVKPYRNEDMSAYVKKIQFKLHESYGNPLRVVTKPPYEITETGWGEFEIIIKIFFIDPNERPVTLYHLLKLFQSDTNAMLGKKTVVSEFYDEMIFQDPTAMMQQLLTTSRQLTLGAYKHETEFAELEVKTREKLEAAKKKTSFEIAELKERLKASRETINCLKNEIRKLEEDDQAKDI
Description: HuProt human proteome microarray, binding of rRv3364c. Particulars: cell-free protein microarray, signal at 532 nm. The text has this:
(§1) FIGS. 1A and 1B illustrate results of screening candidate proteins predicted to potentially interact with rRv3364c in a CDI HuProt™ Human Proteome Microarray. Each figure illustrates a section of a protein array showing a positive response. A signal at 532 nm was stronger in an rRv3364c group than in a control group;
(§2) In order to identify a protein binding to rRv3364c, human protein microarrays (CDI Labs, USA) containing 20,000 or more full-length recombinant human proteins were used. Specifically, the protein microarrays were treated with a blocking buffer (2% BSA in PBS, 0.1% […]) for 2 hours. 3 μg of […] on the microarrays at 4° C. for 8 hours. Thereafter, each array was treated with 1 μg of streptavidin fluorescence Alexa Fluor 532 nm at 4° C. for 1 hour. Microarray results were detected using a GenePix 4100A microarray laser scanner (Molecular Devices, USA).
(§3) A customized protein binding assay was used to identify interacting proteins, and candidate proteins capable of potentially interacting with rRv3364c were selected. […] In FIG. 1A, an affinity score (A score) is a normalized signal intensity of two overlapping points, and a specificity score (B score) is a difference between the affinity score of the protein and the protein ranked next thereto.

The target in data set [6] is T5, EGFLAM (EGF-like Fibronectin type III and Laminin G domains) (Homo sapiens, UniProt Q63HQ2).
T5 construct: containing 20,000 or more full-length recombinant human proteins; purchased CDI Labs, USA (HuProt Human Proteome Microarray)
T5 sequence (Q63HQ2 25-1017): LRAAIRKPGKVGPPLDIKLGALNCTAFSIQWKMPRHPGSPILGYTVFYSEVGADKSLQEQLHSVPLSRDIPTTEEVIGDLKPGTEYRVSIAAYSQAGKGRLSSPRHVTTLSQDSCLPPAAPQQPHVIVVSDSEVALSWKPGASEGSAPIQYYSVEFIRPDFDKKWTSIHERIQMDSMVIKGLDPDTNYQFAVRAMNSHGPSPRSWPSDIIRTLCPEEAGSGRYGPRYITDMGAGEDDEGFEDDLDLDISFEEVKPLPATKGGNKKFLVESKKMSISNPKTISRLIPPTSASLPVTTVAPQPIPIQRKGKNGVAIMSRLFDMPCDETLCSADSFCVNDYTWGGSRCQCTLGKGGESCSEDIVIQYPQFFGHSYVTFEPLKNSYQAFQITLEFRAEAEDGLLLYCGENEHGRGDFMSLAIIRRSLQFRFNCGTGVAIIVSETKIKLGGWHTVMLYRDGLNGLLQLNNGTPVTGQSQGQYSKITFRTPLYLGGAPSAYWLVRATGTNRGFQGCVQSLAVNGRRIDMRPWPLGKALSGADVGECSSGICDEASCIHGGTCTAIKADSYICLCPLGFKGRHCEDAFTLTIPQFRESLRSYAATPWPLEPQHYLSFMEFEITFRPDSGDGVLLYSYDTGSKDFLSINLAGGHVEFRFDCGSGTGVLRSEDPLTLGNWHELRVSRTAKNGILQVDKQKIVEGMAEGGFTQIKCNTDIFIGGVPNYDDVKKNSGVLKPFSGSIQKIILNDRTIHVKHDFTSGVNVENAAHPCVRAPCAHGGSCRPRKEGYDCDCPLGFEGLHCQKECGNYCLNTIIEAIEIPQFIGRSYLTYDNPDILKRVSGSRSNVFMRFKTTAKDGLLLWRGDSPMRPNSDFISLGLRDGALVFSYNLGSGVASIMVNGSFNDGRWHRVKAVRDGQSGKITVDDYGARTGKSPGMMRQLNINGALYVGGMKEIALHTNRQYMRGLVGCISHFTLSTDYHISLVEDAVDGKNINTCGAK
The data set is described as above. Conditions: cell-free protein microarray, signal at 532 nm.
Text: as §1, §2, §3

Data set [7] has as its target T6, ZBTB46 (zinc finger and BTB domain-containing 46) (Homo sapiens, UniProt Q86UZ6).
T6 construct: containing 20,000 or more full-length recombinant human proteins; purchased CDI Labs, USA (HuProt Human Proteome Microarray)
T6 sequence (Q86UZ6 1-589): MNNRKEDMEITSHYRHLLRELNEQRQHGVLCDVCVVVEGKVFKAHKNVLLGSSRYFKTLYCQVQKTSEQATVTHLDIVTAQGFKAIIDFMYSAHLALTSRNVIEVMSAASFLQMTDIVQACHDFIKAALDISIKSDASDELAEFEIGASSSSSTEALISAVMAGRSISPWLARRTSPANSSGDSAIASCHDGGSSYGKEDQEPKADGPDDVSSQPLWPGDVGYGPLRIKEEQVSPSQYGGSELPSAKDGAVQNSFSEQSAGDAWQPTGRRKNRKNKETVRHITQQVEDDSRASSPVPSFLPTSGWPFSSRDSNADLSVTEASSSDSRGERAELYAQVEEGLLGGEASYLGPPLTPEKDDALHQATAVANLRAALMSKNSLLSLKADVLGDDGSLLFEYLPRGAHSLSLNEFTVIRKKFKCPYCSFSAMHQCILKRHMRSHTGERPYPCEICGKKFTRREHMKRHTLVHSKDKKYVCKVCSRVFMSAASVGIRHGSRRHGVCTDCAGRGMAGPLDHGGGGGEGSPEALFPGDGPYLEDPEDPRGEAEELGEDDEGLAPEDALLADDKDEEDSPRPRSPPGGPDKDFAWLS
Described as above. Particulars: cell-free protein microarray, signal at 532 nm.
Text: as §1, §2, §3

In the next data set the target is T7, SNX9 (sorting nexin 9) (Homo sapiens, UniProt Q9Y5X1).
T7 construct: containing 20,000 or more full-length recombinant human proteins; purchased CDI Labs, USA (HuProt Human Proteome Microarray)
T7 sequence (Q9Y5X1 whole entry): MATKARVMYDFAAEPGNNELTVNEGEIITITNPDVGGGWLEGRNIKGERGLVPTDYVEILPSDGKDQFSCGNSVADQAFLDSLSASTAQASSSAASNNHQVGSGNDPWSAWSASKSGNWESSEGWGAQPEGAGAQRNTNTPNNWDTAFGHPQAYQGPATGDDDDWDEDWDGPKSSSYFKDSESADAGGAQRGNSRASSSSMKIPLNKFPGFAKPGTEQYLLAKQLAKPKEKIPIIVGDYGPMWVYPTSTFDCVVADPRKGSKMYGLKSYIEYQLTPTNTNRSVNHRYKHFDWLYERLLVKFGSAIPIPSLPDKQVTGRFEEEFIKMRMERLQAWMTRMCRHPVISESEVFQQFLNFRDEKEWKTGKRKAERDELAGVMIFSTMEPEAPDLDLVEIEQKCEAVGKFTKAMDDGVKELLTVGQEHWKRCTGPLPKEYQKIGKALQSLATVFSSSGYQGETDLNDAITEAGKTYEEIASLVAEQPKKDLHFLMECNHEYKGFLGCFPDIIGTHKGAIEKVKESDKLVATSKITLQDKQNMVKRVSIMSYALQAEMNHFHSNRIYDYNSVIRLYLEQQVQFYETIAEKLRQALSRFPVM
Described as above. Particulars: cell-free protein microarray, signal at 532 nm.
Text: as §1, §2, §3

T1 sequence (Q9CR11 whole entry): as the sequence (O95619 whole entry, the tested form may be a part) above, with A224T counted along it

Take “rRv3364c: recombinant Rv3364c protein of MTB H37Rv with N-terminal 6xHis tag, expressed in E. coli, 13 kDa”: the “intracellular position of binding to YEATS4” value with YEATS4 [1] is recorded as “migrated to the nucleus to bind to YEATS4”. Further, the “interaction with endogenous and extrinsic YEATS4 (co-immunoprecipitation)” value in the data set with YEATS4 [2] is listed as “strongly interacted”. Further, the “production of pro-inflammatory cytokines (TNF-α, IL-6, and IL-12p40) and anti-inflammatory cytokines (IL-10)” value with macrophages (BMDM) (BMDM, through TLR4/MyD88/TRAF6/TBK1-IRAK1 pathway) was “promoted the production”. Also, the “production of rRv3364c-induced inflammatory cytokines in SNX9−/− compared to SNX9+/+ macrophages” value with macrophages (BMDM) (SNX9−/− BMDM) is given as “significantly reduced”. In addition, in the data set with macrophages, the rRv3364c-induced cytotoxicity result is “not observed”. Also, the “intracellular position of binding to SNX9” value with SNX9 [3] is “initially bound to SNC9 in the cytoplasm”. In addition, the “interaction with endogenous and extrinsic SNX9 (co-immunoprecipitation)” value in the data set with SNX9 [4] was “strongly interacted”. Further, the “enzymatic activity of cathepsin G” value with cathepsin G is “inhibit its enzymatic activity”. The “affinity with rRv3364c” value (in data set [5]; in [6]; in data set [7]; in the data set with SNX9 (sorting nexin 9)) was “high affinity” each time.
